Patent US20250243261A1 (CZ BIOHUB SF, published 2025)
Like-named read-outs stand apart in the source and are kept apart here.

Key:
[1] = target: T1, Ebola GP ectodomain (Mayinga, Zaire, 1976) with the mucin-like domain deleted (Zaire ebolavirus (Mayinga, 1976), UniProt Q05320 33-650)
[2] = target: T1, Ebola GP ectodomain (Mayinga, Zaire, …); remark: listed apart in the source

Row | Binder | Kd [1] [nM] | Kd [2] [nM]
1 | mAb114 UCA VH T41P IgG (antibody, V domains shown) VH: EVQLVESGGGLVQPGGSLRLSCAASGFTFSSYDMHWVRQAPGKGLEWVSAIGTAGDTYYPGSVKGRFTISRENAKNSLYLQMNSLRAGDTAVYYCVRSDRGVAGLFDSWGQGTLVTVSS VL: DIQMTQSPSSLSASVGDRVTITCRASQGISNYLAWYQQKPGKVPKLLIYAASTLQSGVPSRFSGSGSGTDFTLTISSLQPEDVATYYCQKYNSAPLTFGGGTKVEIK | 100 | –
2 | mAb114 UCA VH A54G IgG (antibody, V domains shown) VH: EVQLVESGGGLVQPGGSLRLSCAASGFTFSSYDMHWVRQATGKGLEWVSAIGTGGDTYYPGSVKGRFTISRENAKNSLYLQMNSLRAGDTAVYYCVRSDRGVAGLFDSWGQGTLVTVSS VL: DIQMTQSPSSLSASVGDRVTITCRASQGISNYLAWYQQKPGKVPKLLIYAASTLQSGVPSRFSGSGSGTDFTLTISSLQPEDVATYYCQKYNSAPLTFGGGTKVEIK | 80000 | –
3 | mAb114 UCA VH P60A IgG (antibody, V domains shown) VH: EVQLVESGGGLVQPGGSLRLSCAASGFTFSSYDMHWVRQATGKGLEWVSAIGTAGDTYYAGSVKGRFTISRENAKNSLYLQMNSLRAGDTAVYYCVRSDRGVAGLFDSWGQGTLVTVSS VL: DIQMTQSPSSLSASVGDRVTITCRASQGISNYLAWYQQKPGKVPKLLIYAASTLQSGVPSRFSGSGSGTDFTLTISSLQPEDVATYYCQKYNSAPLTFGGGTKVEIK | 40000 | –
4 | mAb114 UCA VH G61D IgG (antibody, V domains shown) VH: EVQLVESGGGLVQPGGSLRLSCAASGFTFSSYDMHWVRQATGKGLEWVSAIGTAGDTYYPDSVKGRFTISRENAKNSLYLQMNSLRAGDTAVYYCVRSDRGVAGLFDSWGQGTLVTVSS VL: DIQMTQSPSSLSASVGDRVTITCRASQGISNYLAWYQQKPGKVPKLLIYAASTLQSGVPSRFSGSGSGTDFTLTISSLQPEDVATYYCQKYNSAPLTFGGGTKVEIK | 100 | –
5 | mAb114 VH M31S Fab (Fab, V domains shown) VH: EVQLVESGGGLIQPGGSLRLSCAASGFALRSYDMHWVRQTIDKRLEWVSAVGPSGDTYYADSVKGRFAVSRENAKNSLSLQMNSLTAGDTAIYYCVRSDRGVAGLFDSWGQGILVTVSS VL: DIQMTQSPSSLSASVGDRITITCRASQAFDNYVAWYQQRPGKVPKLLISAASALHAGVPSRFSGSGSGTHFTLTISSLQPEDVATYYCQNYNSAPLTFGGGTKVEIK | – | 0.1
6 | mAb114 VH I41P-D42G-A68T-S79Y-I113T / VL V43A Fab (Fab, V domains shown) VH: EVQLVESGGGLIQPGGSLRLSCAASGFALRMYDMHWVRQTPGKRLEWVSAVGPSGDTYYADSVKGRFTVSRENAKNSLYLQMNSLTAGDTAIYYCVRSDRGVAGLFDSWGQGTLVTVSS VL: DIQMTQSPSSLSASVGDRITITCRASQAFDNYVAWYQQRPGKAPKLLISAASALHAGVPSRFSGSGSGTHFTLTISSLQPEDVATYYCQNYNSAPLTFGGGTKVEIK | – | 0.069
7 | mAb114 VL H70D Fab (Fab, V domains shown) VH: EVQLVESGGGLIQPGGSLRLSCAASGFALRMYDMHWVRQTIDKRLEWVSAVGPSGDTYYADSVKGRFAVSRENAKNSLSLQMNSLTAGDTAIYYCVRSDRGVAGLFDSWGQGILVTVSS VL: DIQMTQSPSSLSASVGDRITITCRASQAFDNYVAWYQQRPGKVPKLLISAASALHAGVPSRFSGSGSGTDFTLTISSLQPEDVATYYCQNYNSAPLTFGGGTKVEIK | – | 0.3
8 | mAb114 VL I19V Fab (Fab, V domains shown) VH: EVQLVESGGGLIQPGGSLRLSCAASGFALRMYDMHWVRQTIDKRLEWVSAVGPSGDTYYADSVKGRFAVSRENAKNSLSLQMNSLTAGDTAIYYCVRSDRGVAGLFDSWGQGILVTVSS VL: DIQMTQSPSSLSASVGDRVTITCRASQAFDNYVAWYQQRPGKVPKLLISAASALHAGVPSRFSGSGSGTHFTLTISSLQPEDVATYYCQNYNSAPLTFGGGTKVEIK | – | 0.2
9 | mAb114 VH I113T Fab (Fab, V domains shown) VH: EVQLVESGGGLIQPGGSLRLSCAASGFALRMYDMHWVRQTIDKRLEWVSAVGPSGDTYYADSVKGRFAVSRENAKNSLSLQMNSLTAGDTAIYYCVRSDRGVAGLFDSWGQGTLVTVSS VL: DIQMTQSPSSLSASVGDRITITCRASQAFDNYVAWYQQRPGKVPKLLISAASALHAGVPSRFSGSGSGTHFTLTISSLQPEDVATYYCQNYNSAPLTFGGGTKVEIK | – | 0.07
10 | mAb114 VH A68T-E72D-S79Y-I113T / VL V43A Fab (Fab, V domains shown) VH: EVQLVESGGGLIQPGGSLRLSCAASGFALRMYDMHWVRQTIDKRLEWVSAVGPSGDTYYADSVKGRFTVSRDNAKNSLYLQMNSLTAGDTAIYYCVRSDRGVAGLFDSWGQGTLVTVSS VL: DIQMTQSPSSLSASVGDRITITCRASQAFDNYVAWYQQRPGKAPKLLISAASALHAGVPSRFSGSGSGTHFTLTISSLQPEDVATYYCQNYNSAPLTFGGGTKVEIK | – | 0.076
11 | mAb114 VH D42G-A68T-S79Y Fab (Fab, V domains shown) VH: EVQLVESGGGLIQPGGSLRLSCAASGFALRMYDMHWVRQTIGKRLEWVSAVGPSGDTYYADSVKGRFTVSRENAKNSLYLQMNSLTAGDTAIYYCVRSDRGVAGLFDSWGQGILVTVSS VL: DIQMTQSPSSLSASVGDRITITCRASQAFDNYVAWYQQRPGKVPKLLISAASALHAGVPSRFSGSGSGTHFTLTISSLQPEDVATYYCQNYNSAPLTFGGGTKVEIK | – | 0.19
12 | mAb114 VH A68T-I113T / VL V43A Fab (Fab, V domains shown) VH: EVQLVESGGGLIQPGGSLRLSCAASGFALRMYDMHWVRQTIDKRLEWVSAVGPSGDTYYADSVKGRFTVSRENAKNSLSLQMNSLTAGDTAIYYCVRSDRGVAGLFDSWGQGTLVTVSS VL: DIQMTQSPSSLSASVGDRITITCRASQAFDNYVAWYQQRPGKAPKLLISAASALHAGVPSRFSGSGSGTHFTLTISSLQPEDVATYYCQNYNSAPLTFGGGTKVEIK | – | 0.17
13 | mAb114 VL S49Y Fab (Fab, V domains shown) VH: EVQLVESGGGLIQPGGSLRLSCAASGFALRMYDMHWVRQTIDKRLEWVSAVGPSGDTYYADSVKGRFAVSRENAKNSLSLQMNSLTAGDTAIYYCVRSDRGVAGLFDSWGQGILVTVSS VL: DIQMTQSPSSLSASVGDRITITCRASQAFDNYVAWYQQRPGKVPKLLIYAASALHAGVPSRFSGSGSGTHFTLTISSLQPEDVATYYCQNYNSAPLTFGGGTKVEIK | – | 0.6
14 | mAb114 VL N90Q Fab (Fab, V domains shown) VH: EVQLVESGGGLIQPGGSLRLSCAASGFALRMYDMHWVRQTIDKRLEWVSAVGPSGDTYYADSVKGRFAVSRENAKNSLSLQMNSLTAGDTAIYYCVRSDRGVAGLFDSWGQGILVTVSS VL: DIQMTQSPSSLSASVGDRITITCRASQAFDNYVAWYQQRPGKVPKLLISAASALHAGVPSRFSGSGSGTHFTLTISSLQPEDVATYYCQQYNSAPLTFGGGTKVEIK | – | 4
15 | mAb114 VH D42G Fab (Fab, V domains shown) VH: EVQLVESGGGLIQPGGSLRLSCAASGFALRMYDMHWVRQTIGKRLEWVSAVGPSGDTYYADSVKGRFAVSRENAKNSLSLQMNSLTAGDTAIYYCVRSDRGVAGLFDSWGQGILVTVSS VL: DIQMTQSPSSLSASVGDRITITCRASQAFDNYVAWYQQRPGKVPKLLISAASALHAGVPSRFSGSGSGTHFTLTISSLQPEDVATYYCQNYNSAPLTFGGGTKVEIK | – | 0.2
16 | mAb114 VL F29I Fab (Fab, V domains shown) VH: EVQLVESGGGLIQPGGSLRLSCAASGFALRMYDMHWVRQTIDKRLEWVSAVGPSGDTYYADSVKGRFAVSRENAKNSLSLQMNSLTAGDTAIYYCVRSDRGVAGLFDSWGQGILVTVSS VL: DIQMTQSPSSLSASVGDRITITCRASQAIDNYVAWYQQRPGKVPKLLISAASALHAGVPSRFSGSGSGTHFTLTISSLQPEDVATYYCQNYNSAPLTFGGGTKVEIK | – | 0.5
17 | mAb114 VH A68T Fab (Fab, V domains shown) VH: EVQLVESGGGLIQPGGSLRLSCAASGFALRMYDMHWVRQTIDKRLEWVSAVGPSGDTYYADSVKGRFTVSRENAKNSLSLQMNSLTAGDTAIYYCVRSDRGVAGLFDSWGQGILVTVSS VL: DIQMTQSPSSLSASVGDRITITCRASQAFDNYVAWYQQRPGKVPKLLISAASALHAGVPSRFSGSGSGTHFTLTISSLQPEDVATYYCQNYNSAPLTFGGGTKVEIK | – | 0.1
18 | mAb114 VL V43A Fab (Fab, V domains shown) VH: EVQLVESGGGLIQPGGSLRLSCAASGFALRMYDMHWVRQTIDKRLEWVSAVGPSGDTYYADSVKGRFAVSRENAKNSLSLQMNSLTAGDTAIYYCVRSDRGVAGLFDSWGQGILVTVSS VL: DIQMTQSPSSLSASVGDRITITCRASQAFDNYVAWYQQRPGKAPKLLISAASALHAGVPSRFSGSGSGTHFTLTISSLQPEDVATYYCQNYNSAPLTFGGGTKVEIK | – | 0.07
19 | mAb114 VH E72D Fab (Fab, V domains shown) VH: EVQLVESGGGLIQPGGSLRLSCAASGFALRMYDMHWVRQTIDKRLEWVSAVGPSGDTYYADSVKGRFAVSRDNAKNSLSLQMNSLTAGDTAIYYCVRSDRGVAGLFDSWGQGILVTVSS VL: DIQMTQSPSSLSASVGDRITITCRASQAFDNYVAWYQQRPGKVPKLLISAASALHAGVPSRFSGSGSGTHFTLTISSLQPEDVATYYCQNYNSAPLTFGGGTKVEIK | – | 0.1
20 | mAb114 VH S79Y Fab (Fab, V domains shown) VH: EVQLVESGGGLIQPGGSLRLSCAASGFALRMYDMHWVRQTIDKRLEWVSAVGPSGDTYYADSVKGRFAVSRENAKNSLYLQMNSLTAGDTAIYYCVRSDRGVAGLFDSWGQGILVTVSS VL: DIQMTQSPSSLSASVGDRITITCRASQAFDNYVAWYQQRPGKVPKLLISAASALHAGVPSRFSGSGSGTHFTLTISSLQPEDVATYYCQNYNSAPLTFGGGTKVEIK | – | 0.1
21 | mAb114 VH I41P-D42G-A68T-S79Y-I113T Fab (Fab, V domains shown) VH: EVQLVESGGGLIQPGGSLRLSCAASGFALRMYDMHWVRQTPGKRLEWVSAVGPSGDTYYADSVKGRFTVSRENAKNSLYLQMNSLTAGDTAIYYCVRSDRGVAGLFDSWGQGTLVTVSS VL: DIQMTQSPSSLSASVGDRITITCRASQAFDNYVAWYQQRPGKVPKLLISAASALHAGVPSRFSGSGSGTHFTLTISSLQPEDVATYYCQNYNSAPLTFGGGTKVEIK | – | 0.19
22 | mAb114 VH I41P Fab (Fab, V domains shown) VH: EVQLVESGGGLIQPGGSLRLSCAASGFALRMYDMHWVRQTPDKRLEWVSAVGPSGDTYYADSVKGRFAVSRENAKNSLSLQMNSLTAGDTAIYYCVRSDRGVAGLFDSWGQGILVTVSS VL: DIQMTQSPSSLSASVGDRITITCRASQAFDNYVAWYQQRPGKVPKLLISAASALHAGVPSRFSGSGSGTHFTLTISSLQPEDVATYYCQNYNSAPLTFGGGTKVEIK | – | 0.3
